The record followed here is the supplement of paper PMC10567573.

Sequences and labels used below:
B1: MMP1 (parent)
chain: YTPDLPRADVDHAIEKAFQLWSNV
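Also: lentivirally expressed fusions sorted by FACS into six bins by GFP to DsRed ratio, PSI derived from sequencing read proportions per bin multiplied by bin number.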

Variants of B1 are the subject of this data set. The data set is described as follows: protein stability index of a GFP-peptide fusion (GPS, HEK-293T) (PSI 1-6); higher = more stable. Conditions: c terminus: a fixed tail appended.
As to YTPDLPRADVDHAIEKAFMLWSNV [Q19M], the protein stability index was 1.68.

As to YTPDLPRADVDHAIEKAFQLRSNV [W21R], the protein stability index came out at 3.25. Under YTPDLPRADVDHAIEKAFQLNSNV [W21N] stands 3.36. As to YTPDLPRADVDHAIEKAFQLVSNV [W21V], the protein stability index worked out at 3.18. Under YTPDLPRADVDHAIEKAFQLHSNV [W21H] stands 3.42; under YTPDLPRADVDHAIEKAFQLLSNV [W21L], 3.56; under YTPDLPRADVDHAIEKAFQLMSNV [W21M], 3.03. For YTPDLPRADVDHAIEKAFQLCSNV [W21C] the value was 3.03. Under YTPDLPRADVDHAIEKAFQLASNV [W21A] stands 3.05; under YTPDLPRADVDHAIEKAFQLPSNV [W21P], 3.4; under YTPDLPRADVDHAIEKAFQLKSNV [W21K], 3.4.

As to YTPDLPRADVDHAIEKAFQLISNV [W21I], the protein stability index turned out to be 2.67. Turning to YTPDLPRADVDHAIEKAFQLSSNV [W21S], the protein stability index was 3.25. For YTPDLPRADVDHAIEKAFQLDSNV [W21D] the value was 3.88; for YTPDLPRADVDHAIEKAFQLGSNV [W21G], 3.01; for YTPDLPRADVDHAIEKAFQLQSNV [W21Q], 2.88. Under YTPDLPRADVDHAIEKAFQLESNV [W21E] stands 3.74; under YTPDLPRADVDHAIEKAFQLYSNV [W21Y], 2.5; under YTPDLPRADVDHAIEKAFQLTSNV [W21T], 3.42. For YTPDLPRADVDHAIEKAFQLFSNV [W21F], the protein stability index is 2.13.

For YTPDLPRADVDHAIEKAFQLWSEV [N23E], the protein stability index turned out to be 2.49. For YTPDLPRADVDHAIEKAFQLWSSV [N23S] the value was 2.28; for YTPDLPRADVDHAIEKAFQLWSFV [N23F], 2.29. Under YTPDLPRADVDHAIEKAFQLWSGV [N23G] stands 2.12. For YTPDLPRADVDHAIEKAFQLWSRV [N23R] the value was 2.01. YTPDLPRADVDHAIEKAFQLWSMV [N23M]: the protein stability index stood at 2.02. For YTPDLPRADVDHAIEKAFQLWSKV [N23K] the value was 2.28; for YTPDLPRADVDHAIEKAFQLWSDV [N23D], 1.86.

As to YTPDLPRADVDHAIEKAFQLWSAV [N23A], the protein stability index amounted to 2.05. Regarding YTPDLPRADVDHAIEKAFQLWSIV [N23I], the protein stability index is 2.05. Under YTPDLPRADVDHAIEKAFQLWSQV [N23Q] stands 1.57; under YTPDLPRADVDHAIEKAFQLWSHV [N23H], 1.69. Consider YTPDLPRADVDHAIEKAFQLWSYV [N23Y], for which the protein stability index was determined as 1.43. Under YTPDLPRADVDHAIEKAFQLWSWV [N23W] stands 1.97; under YTPDLPRADVDHAIEKAFQLWSVV [N23V], 2.23.

Take YTPDLPRADVDHAIEKAFQLWSTV [N23T]: the protein stability index was 2.07. Under YTPDLPRADVDHAIEKAFQLWSCV [N23C] stands 1.29; under YTPDLPRADVDHAIEKAFQLWSLV [N23L], 2.1. Under YTPDLPRADVDHAIEKAFQLWKNV [S22K] stands 2.03; under YTPDLPRADVDHAIEKAFQLWLNV [S22L], 2.19.

On to YTPDLPRADVDHAIEKAFQLWRNV [S22R], for which the protein stability index worked out at 1.72. For YTPDLPRADVDHAIEKAFQLWDNV [S22D] the value was 2.59; for YTPDLPRADVDHAIEKAFQLWTNV [S22T], 1.59; for YTPDLPRADVDHAIEKAFQLWQNV [S22Q], 1.98. For YTPDLPRADVDHAIEKAFQLWWNV [S22W] the value was 1.91. Under YTPDLPRADVDHAIEKAFQLWCNV [S22C] stands 2.02; under YTPDLPRADVDHAIEKAFQLWENV [S22E], 2.75. As to YTPDLPRADVDHAIEKAFQLWPNV [S22P], the protein stability index was 1.85. Under YTPDLPRADVDHAIEKAFQLWMNV [S22M] stands 1.69; under YTPDLPRADVDHAIEKAFQLWNNV [S22N], 1.85; under YTPDLPRADVDHAIEKAFQLWYNV [S22Y], 1.67. YTPDLPRADVDHAIEKAFQLWANV [S22A]: the protein stability index turned out to be 1.78.

Regarding YTPDLPRADVDHAIEKAFQLWVNV [S22V], the protein stability index came out at 1.44.

On to YTPDLPRADVDHAIEKAFQLWHNV [S22H], for which the protein stability index stood at 1.43. Take YTPDLPRADVDHAIEKAFQLWGNV [S22G]: the protein stability index turned out to be 1.81. On to YTPDLPRADVDHAIEKAFQLWINV [S22I], for which the protein stability index was 2.04. For YTPDLPRADVDHAIEKAFQLWFNV [S22F] the value was 1.82; for YTPDLPRADVDHAIEKAFQLWSNA [V24A], 2.06; for YTPDLPRADVDHAIEKAFQLWSNE [V24E], 2.16.

Take YTPDLPRADVDHAIEKAFQLWSNW [V24W]: the protein stability index is 2.39. For YTPDLPRADVDHAIEKAFQLWSNQ [V24Q] the value was 2.14; for YTPDLPRADVDHAIEKAFQLWSNY [V24Y], 2.63; for YTPDLPRADVDHAIEKAFQLWSNM [V24M], 2.29. As to YTPDLPRADVDHAIEKAFQLWSNS [V24S], the protein stability index is 1.66. For YTPDLPRADVDHAIEKAFQLWSNG [V24G] the value was 2.37. For YTPDLPRADVDHAIEKAFQLWSNC [V24C] the value was 1.87. On to YTPDLPRADVDHAIEKAFQLWSNP [V24P], for which the protein stability index turned out to be 2.43. Take YTPDLPRADVDHAIEKAFQLWSNL [V24L]: the protein stability index is 1.65. Under YTPDLPRADVDHAIEKAFQLWSNF [V24F] stands 1.83. As to YTPDLPRADVDHAIEKAFQLWSNH [V24H], the protein stability index came out at 1.71.

On to YTPDLPRADVDHAIEKAFQLWSNK [V24K], for which the protein stability index worked out at 2.5. Under YTPDLPRADVDHAIEKAFQLWSNN [V24N] stands 1.94.

YTPDLPRADVDHAIEKAFQLWSNT [V24T]: the protein stability index was found to be 2.29. For YTPDLPRADVDHAIEKAFQLWSNR [V24R] the value was 1.53. For YTPDLPRADVDHAIEKAFQLWSNI [V24I] the value was 1.79; for YTPDLPRADVDHAIEKAFQLWSND [V24D], 2.02; for YTPDLPRADVDHAIEKAFQAWSNV [L20A], 2.17. Under YTPDLPRADVDHAIEKAFQQWSNV [L20Q] stands 1.59; under YTPDLPRADVDHAIEKAFQHWSNV [L20H], 2.38. YTPDLPRADVDHAIEKAFQKWSNV [L20K]: the protein stability index was determined as 2.9. On to YTPDLPRADVDHAIEKAFQNWSNV [L20N], for which the protein stability index worked out at 2.19.

Take YTPDLPRADVDHAIEKAFQGWSNV [L20G]: the protein stability index worked out at 1.9. Under YTPDLPRADVDHAIEKAFQSWSNV [L20S] stands 2.29; under YTPDLPRADVDHAIEKAFQDWSNV [L20D], 2.96; under YTPDLPRADVDHAIEKAFQFWSNV [L20F], 2.67. Under YTPDLPRADVDHAIEKAFQPWSNV [L20P] stands 1.88. For YTPDLPRADVDHAIEKAFQRWSNV [L20R] the value was 1.99. For YTPDLPRADVDHAIEKAFQIWSNV [L20I], the protein stability index worked out at 2.16. For YTPDLPRADVDHAIEKAFQYWSNV [L20Y] the value was 1.78. For YTPDLPRADVDHAIEKAFQWWSNV [L20W] the value was 1.1; for YTPDLPRADVDHAIEKAFQCWSNV [L20C], 1.84; for YTPDLPRADVDHAIEKAFQEWSNV [L20E], 3.55.

Take YTPDLPRADVDHAIEKAFQVWSNV [L20V]: the protein stability index turned out to be 2.76.

Regarding YTPDLPRADVDHAIEKAFQMWSNV [L20M], the protein stability index worked out at 1.77.

As to YTPDLPRADVDHAIEKAFQTWSNV [L20T], the protein stability index is 2.21.
